According to publication PMC4197815:

Biological target: NL2HA-S714A (human) (UniProt Q8NFZ4)
Assay: co-IP

UniProt Q8NFZ4, sequence (Q8NFZ4 15-835, stated change not applied): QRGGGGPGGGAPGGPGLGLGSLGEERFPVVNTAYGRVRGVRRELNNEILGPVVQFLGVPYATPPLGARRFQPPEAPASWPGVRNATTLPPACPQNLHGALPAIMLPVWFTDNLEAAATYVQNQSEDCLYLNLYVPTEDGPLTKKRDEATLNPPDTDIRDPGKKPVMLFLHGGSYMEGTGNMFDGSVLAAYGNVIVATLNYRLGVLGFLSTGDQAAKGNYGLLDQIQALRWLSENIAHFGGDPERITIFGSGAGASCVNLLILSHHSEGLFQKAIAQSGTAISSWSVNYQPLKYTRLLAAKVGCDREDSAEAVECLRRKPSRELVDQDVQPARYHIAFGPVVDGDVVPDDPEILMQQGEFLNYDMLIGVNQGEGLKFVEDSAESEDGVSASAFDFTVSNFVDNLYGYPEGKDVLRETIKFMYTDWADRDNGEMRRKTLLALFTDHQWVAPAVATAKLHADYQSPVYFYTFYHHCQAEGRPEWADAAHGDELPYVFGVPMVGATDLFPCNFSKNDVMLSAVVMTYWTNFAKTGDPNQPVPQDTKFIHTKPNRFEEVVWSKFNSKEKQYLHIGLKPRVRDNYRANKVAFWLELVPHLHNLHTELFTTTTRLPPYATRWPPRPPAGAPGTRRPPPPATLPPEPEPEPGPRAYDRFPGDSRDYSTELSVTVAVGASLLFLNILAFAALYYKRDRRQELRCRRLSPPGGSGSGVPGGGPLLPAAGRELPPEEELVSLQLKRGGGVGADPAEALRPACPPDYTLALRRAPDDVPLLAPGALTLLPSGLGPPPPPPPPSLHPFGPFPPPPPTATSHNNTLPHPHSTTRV

B1: gephyrin-FLAG (natural protein)
chain: MATEGMILTNHDHQIRVGVLTVSDSCFRNLAEDRSGINLKDLVQDPSLLGGTISAYKIVPDEIEEIKETLIDWCDEKELNLILTTGGTGFAPRDVTPEATKEVIEREAPGMALAMLMGSLNVTPLGMLSRPVCGIRGKTLIINLPGSKKGSQECFQFILPALPHAIDLLRDAIVKVKEVHDELEDLPSPPPPLSPPPTTSPHKQTEDKGVQCEEEEEEKKDSGVASTEDSSSSHITAAALAAKIPDSIISRGVQVLPRDTASLSTTPSESPRAQATSRLSTASCPTPKVQSRCSSKENILRASHSAVDITKVARRHRMSPFPLTSMDKAFITVLEMTPVLGTEIINYRDGMGRVLAQDVYAKDNLPPFPASVKDGYAVRAADGPGDRFIIGESQAGEQPTQTVMPGQVMRVTTGAPIPCGADAVVQVEDTELIRESDDGTEELEVRILVQARPGQDIRPIGHDIKRGECVLAKGTHMGPSEIGLLATVGVTEVEVNKFPVVAVMSTGNELLNPEDDLLPGKIRDSNRSTLLATIQEHGYPTINLGIVGDNPDDLLNALNEGISRADVIITSGGVSMGEKDYLKQVLDIDLHAQIHFGRVFMKPGLPTTFATLDIDGVRKIIFALPGNPVSAVVTCNLFVVPALRKMQGILDPRPTIIKARLSCDVKLDPRPEYHRCILTWHHQEPLPWAQSTGNQMSSRLMSMRSANGLLMLPPKTEQYVELHKGEVVDVMVIGRL
An increase of co-precipitated gephyrin-FLAG against NL2HA of 140% was found for B1 in this work.
